The series has as its target T1, GST-ZPR1 (human, UniProt O75312 1-459).
T1 sequence: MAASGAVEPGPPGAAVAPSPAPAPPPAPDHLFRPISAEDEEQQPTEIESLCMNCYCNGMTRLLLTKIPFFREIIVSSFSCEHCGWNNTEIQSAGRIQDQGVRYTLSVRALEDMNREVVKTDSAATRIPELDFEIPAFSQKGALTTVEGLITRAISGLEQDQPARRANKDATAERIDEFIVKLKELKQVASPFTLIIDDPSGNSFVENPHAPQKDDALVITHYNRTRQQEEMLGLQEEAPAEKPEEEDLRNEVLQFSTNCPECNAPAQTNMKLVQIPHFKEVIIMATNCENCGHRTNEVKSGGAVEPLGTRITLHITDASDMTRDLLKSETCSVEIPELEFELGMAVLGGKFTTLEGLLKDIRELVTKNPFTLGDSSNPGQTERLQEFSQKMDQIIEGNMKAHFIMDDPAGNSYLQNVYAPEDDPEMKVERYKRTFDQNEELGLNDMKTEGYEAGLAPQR
The series is described as follows: EMSA.

As to CGAAACTACCTTCAACTCCATCATGAAGTGTGACGTGGAC (ssDNA) [DNA* 40 nt], the binding result is reported as “binds”.

Source of the values: publication PMC9536298.
